From patent US9969998B2, “Compositions of adenosine deaminase-2 (ADA2), variants thereof and methods of using same” (Halozyme, Inc., priority 2014, dated 2018)
“Also recorded” adds a separate entry of the source.

B1: ADA2: wild-type human adenosine deaminase 2, mature form SEQ ID NO:5, homodimer (protein, listed as Homo sapiens)
chain: IDETRAHLLLKEKMMRLGGRLVLNTKEELANERLMTLKIAEMKEAMRTLIFPPSMHFFQAKHLIERSQVFNILRMMPKGAALHLHDIGIVTMDWLVRNVTYRPHCHICFTPRGIMQFRFAHPTPRPSEKCSKWILLEDYRKRVQNVTEFDDSLLRNFTLVTQHPEVIYTNQNVVWSKFETIFFTISGLIHYAPVFRDYVFRSMQEFYEDNVLYMEIRARLLPVYELSGEHHDEEWSVKTYQEVAQKFVETHPEFIGIKIIYSDHRSKDVAVIAESIRMAMGLRIKFPTVVAGFDLVGHEDTGHSLHDYKEALMIPAKDGVKLPYFFHAGETDWQGTSIDRNILDALMLNTTRIGHGFALSKHPAVRTYSWKKDIPIEVCPISNQVLKLVSDLRNHPVATLMATGHPMVISSDDPAMFGAKGLSYDFYEVFMGIGGMKADLRTLKQLAMNSIKYSTLLESEKNTFMEIWKKRWDKFIADVATK
modifications: ADA2 mature protein
B2: PEG-K374D: rHuADA2-K374D (SEQ ID NO:20) PEGylated on surface exposed lysines with linear PEG-20K (conjugate)
chain: IDETRAHLLLKEKMMRLGGRLVLNTKEELANERLMTLKIAEMKEAMRTLIFPPSMHFFQAKHLIERSQVFNILRMMPKGAALHLHDIGIVTMDWLVRNVTYRPHCHICFTPRGIMQFRFAHPTPRPSEKCSKWILLEDYRKRVQNVTEFDDSLLRNFTLVTQHPEVIYTNQNVVWSKFETIFFTISGLIHYAPVFRDYVFRSMQEFYEDNVLYMEIRARLLPVYELSGEHHDEEWSVKTYQEVAQKFVETHPEFIGIKIIYSDHRSKDVAVIAESIRMAMGLRIKFPTVVAGFDLVGHEDTGHSLHDYKEALMIPAKDGVKLPYFFHAGETDWQGTSIDRNILDALMLNTTRIGHGFALSKHPAVRTYSWDKDIPIEVCPISNQVLKLVSDLRNHPVATLMATGHPMVISSDDPAMFGAKGLSYDFYEVFMGIGGMKADLRTLKQLAMNSIKYSTLLESEKNTFMEIWKKRWDKFIADVATK
modifications: linear PEG-20K on surface lysines; human ADA2 K371D, mature numbering

Key:
[1] = adenosine deaminase activity; listed as wildtype ADA2; cited from earlier work
[2] = Stability of ADA activity in plasma; format: in vitro ADME, mouse; settings: long incubation (e.g., 24 hours) in plasma
Procedure: For therapeutic uses, such as for treatment of tumors or cancers, it is desirable to administer to the subject a dosage of ADA2 that will maintain plasma adenosine deaminase (ADA) activity for a sufficient time for therapeutic effect. […] The plasma stability of any ADA2 described herein, such as a wildtype, variant or conjugate, can be determined by measuring the changes in enzymatic activity and/or other physical properties, before and after incubation in plasma, e.g., ex vivo mammalian plasma.
Stability can be assessed in vitro or in vivo. For example, stability can be tested after exposure to plasma for a desired length of time, which can be empirically determined or selected by a skilled artisan depending on the desired length of time. For example, the incubation time can be at least 1 hour, such as at least 2, 3, 4, 5, 10, 15, 20, 24, 30, 36, 48, 60, 72 hours or more. The protein can be directly administered systemically, such as intravenously, and activity can be assessed. In other examples, the protein can be subject to appropriate incubation conditions in vitro. In one example, the stability of ADA activity of any ADA2 provided herein can be measured after incubation at 37° C., in 25% ex vivo plasma or serum, such as human or non-human plasma or serum, for example, mouse plasma. […]

[3] = system: mixture of NK and T (NK/T) cells; assay: T-cell or NK/T cell proliferation assay in the presence of adenosine; format: cell-based
From the text: Reversal of adenosine-mediated immunosuppression by any ADA2 provided herein, including wildtype and variants, conjugates and other modified forms thereof, and combination therapy using any ADA2 provided herein and other agents, can be examined in vitro, for example, by performing proliferation assays. Such assays include, but are not limited to T-cell proliferation assays or a mixture of NK and T (NK/T) cell proliferation assays, in the presence of adenosine and/or any ADA2 provided herein and/or any other combination therapy agents. For example, the immunosuppressive effect of adenosine on various immune cells, such as lymphocytes, natural killer (NK) cells, polymorphonuclear granulocytes, and phagocytic cells such as tissue macrophages, can be assessed by proliferation assays using the immune cells or mixtures thereof, such as the mixture of NK and T (NK/T) cells prepared from peripheral blood mononuclear cells (PBMC). The effect of any ADA2 provided herein and any other combination therapy agents provided herein, can be assessed by comparing the results of such proliferation assays in the presence of adenosine, with or without the addition of any ADA2 provided herein and/or any other combination therapy agents provided herein, including immune checkpoint inhibitors. Combination therapy agents are described in Section H.4 below. […]

[4] = Daddona and Kelley (1981); cited from earlier work
[5] = In vivo pharmacokinetics of PEGylated rHuADA2 combination variants (Example 14); settings: BALB/c mice, 3 mg/kg intravenous
From the text: Twenty-seven (27) male BALB/c mice were divided into three (3) dosing groups, and were further divided into three (3) groups each for sampling of blood at different time points. Thus, the mice were randomized into nine (9) groups total. Mice were weighed prior to the start of the study, and randomized into the 9 groups based upon their body weights. In each sampling group, three groups of (3) mice were used for dosing each test article to prevent oversampling of the blood from the animals. For measurement of baseline ADA2 levels, a blood sample was obtained from 12 randomly chosen mice and plasma was prepared using the anti-coagulant potassium (K3) ethylene diamine tetraacetic acid (K3-EDTA). All blood was collected by submandibular venipuncture.
PEGylated ADA2 variants were prepared using the PEGylation method as described in Example 8.A, with minor modifications. Briefly, all ADA2 variants at 10 mg/mL were PEGylated with linear PEG-20K (JenKem Technology, Plano, Tex.; Cat. No. M-SCM-20K) at 1:15 molar ratio and incubated first at 37° for 30 min, then at 4° C. for 16 hours.
Approximately 200 μL of whole blood was collected at designated sampling time points from appropriate groups of mice as indicated below in Table 38 and kept on ice until plasma preparation. The initial two (2) blood samples were collected by submandibular venipuncture. The final sample was collected from a terminal bleed. Plasma was prepared by centrifuging the blood (500×g for 5 min at 4° C.), transferring the plasma to a fresh tube and immediately freezing at −80° C. until the adenosine deaminase activity assay. Adenosine deaminase activity was determined as described in Example 4.
Non-compartmental analysis (NCA) was conducted using the Phoenix WinNonlin version 6.3 (Pharsight Corp, St. Louis, Mo. 63101). The half-life, or time taken for the activity of ADA2 proteins to be reduced by half, was calculated. Also, total exposure was measured by calculating the Area Under the Concentration-time Curve (AUC). The AUC and half-life values were obtained from the unweighted average from each test article group. The following options in the Phoenix WinNonlin program were used for data analysis: (i) linear trapezoidal/linear interpolation option for AUC; (ii) best-fit slope selection option for terminal slope; and (iii) uniform weighting of the data.

CT26 syngeneic tumors = assay: Tumor growth inhibition of combination therapy with anti-PD-1 and anti-CTLA4, CT26 peritibial tumor model; format: in vivo, Balb/C mice; settings: study day 10
Procedure: The murine CT26 syngeneic tumor model was used to compare the antitumor activity of combination therapy using PEGylated ADA2 with checkpoint inhibitors anti-PD-1 and anti-CTLA4 antibodies. CT26 syngeneic tumors were produced by injecting 2×10^5 CT26 cells in 0.05 mL injection volume per animal into the right peritibial muscle of male Balb/C mice. Tumor bearing mice were staged into treatment groups when the average tumor size reached 150 mm^3.
For treatment, animals were randomized into 8 groups (n=8/group) as follows: 1) saline vehicle control, 2) PEG-ADA2-K374D, 3) α-CTLA4 antibody (Clone 9D9, Cat. No. BE0164; BioXCell, West Lebanon, N.H., 4) α-PD-1 antibody (Clone RMP1-14, Cat. No. BE0146; BioXCell, West Lebanon, N.H.), 5) PEG-ADA2-K374D+α-CTLA4; 6) PEG-K374D+α-PD-1; 7) α-CTLA4+α-PD-1, or 8) Triple combo (PEG-ADA2-K374D+α-CTLA4+α-PD-1). PEG-ADA2-K374D was dosed intravenously 3× weekly at 10 mg/kg, α-CTLA4 was dosed intraperiotoneally biweekly at 4 mg/kg, and α-PD-1 was dosed intraperitoneally biweekly at 4 mg/kg. The sequence of dosing in the combination groups was as follows: PEG-ADA2-K374D followed by α-CTLA4 followed by α-PD-1.
Tumor volume was assessed twice weekly via ultrasound imaging using the Vevo2100 (Visual Sonics, Toronto, Canada) to determine tumor growth inhibition (TGI). Animals were anesthetized using light isoflurane anesthesia while the tumor volumes were measured. For tumor measurement, the region of interest was covered in ultrasound gel (Parker Laboratories, Fairfield, N.J.), and the RMV-716 (focal depth=17.5 mm) scan head was positioned directly over the region of interest. While in 2D-Mode, the approximate center of the tumor was located, and subsequently an image (˜150-200 frames) was captured using 3D-mode. Approximately 15-30 frames out of 150-200 frames were analyzed and a tumor volume calculated and expressed in mm^3. Tumor growth Inhibition (TGI) was calculated as described above.

[6] = vs non-PEGylated WT rHuADA2 of Example 9

Molecule | pH optimum [1] | stability in plasma [2] | reversal of adenosine-mediated immunosuppression [3] | stability at higher temperature [4] | AUC (total exposure) ([5]; plasma ADA activity) | Half-life slow (t1/2) ([5]; plasma ADA activity) | Percent increase in AUC compared to WT ADA2 [5, 6] | Percent increase in t1/2 compared to WT ADA2 [5, 6] | Average Group Tumor Volume, SD10 (CT26 syngeneic tumors; PEG-ADA2-K374D 10 mg/kg IV 3x weekly, α-CTLA4 4 mg/kg IP biweekly, α-PD-1 4 mg/kg IP biweekly, ultrasound) [mm^3] | Tumor Growth Inhibition (CT26 syngeneic tumors; PEG-ADA2-K374D 10 mg/kg IV 3x weekly, α-CTLA4 4 mg/kg IP, α-PD-1 4 mg/kg IP biweekly) | TGI (CT26 syngeneic tumors; compared to vehicle control) [%] | Volume Range (CT26 syngeneic tumors; range of tumor volume of all animals in the group)
B1 | ~6.5 | more stable than ADA1 | reverse the adenosine-dependent immunosuppression; also recorded: reversed | substantially more stable at higher temperature compared to ADA1 | – | – | – | – | – | – | – | –
B2 | – | – | – | – | 4,662 (U * h)/mL | 2,256 min | 14,177% | 3,269% | 1499.11 | exhibited tumor growth inhibition activity | 5 | 1213-1594 mm^3
